Measurements published in PMC7904744, “Poly(ADP-ribosyl)ation enhances HuR oligomerization and contributes to pro-inflammatory gene mRNA stabilization”.

Key:
Conditions in all cases: protein: recombinant; tags: GST; label: 5' biotin
[1] = biological target: T1, GST-HuR-RRM1 (UniProt Q15717 20-98); experiment: EMSA; no multiple shifted bands (Fig 4d); EMSA: 3 mM MgCl2, 40 mM KCl, 5% glycerol, 2 mM DTT, 2 ug tRNA, 5 nM RNA, 40 min room temperature; pH not stated; 6% native acrylamide gel
[2] = biological target: GST-HuR (UniProt Q15717 1-326); experiment: EMSA; unmodified; multiple shifted bands (oligomer); EMSA: 3 mM MgCl2, 40 mM KCl, 5% glycerol, 2 mM DTT, 2 ug tRNA, 5 nM RNA, 40 min room temperature; pH not stated; 6% native acrylamide gel
[3] = biological target: T1, GST-HuR-RRM1; experiment: EMSA; EMSA: 3 mM MgCl2, 40 mM KCl, 5% glycerol, 2 mM DTT, 2 ug tRNA, 5 nM RNA, 40 min room temperature; pH not stated; 6% native acrylamide gel

T1 sequence (Q15717 20-98): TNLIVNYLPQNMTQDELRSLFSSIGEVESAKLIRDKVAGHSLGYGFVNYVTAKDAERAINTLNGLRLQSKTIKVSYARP
Sequence of GST-HuR (Q15717 whole entry): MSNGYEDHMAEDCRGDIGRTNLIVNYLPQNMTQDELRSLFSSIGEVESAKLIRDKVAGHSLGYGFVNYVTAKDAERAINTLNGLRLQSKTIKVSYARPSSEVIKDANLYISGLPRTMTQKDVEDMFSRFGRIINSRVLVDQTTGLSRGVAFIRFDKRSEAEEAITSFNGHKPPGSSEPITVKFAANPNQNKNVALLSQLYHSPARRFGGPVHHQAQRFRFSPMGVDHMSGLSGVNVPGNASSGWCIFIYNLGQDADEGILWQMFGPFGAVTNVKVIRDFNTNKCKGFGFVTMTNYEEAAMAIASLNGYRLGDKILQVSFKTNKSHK

B1: Cxcl2 ARE RNA oligo (ssRNA)
RNA: CUAUGUAUUUAUUUAUUUAUUAAUU
B1: binds [1]; binds [2].

B2: AU-rich RNA oligo (tandem ARE repeat) (ssRNA)
RNA: AUUUAUUUAUUUAUUUAUUUAUUUA
B2: binds [3]; binds [2].
